Laboratory results as given in US7943295B2, “Screening and therapeutic method for NSCLC targeting CDCA1-KNTC2 complex” (Oncotherapy Science, Inc., priority 2005, dated 2011).
Entries after “also recorded” stand apart in the source; their conditions may differ. Each block holds one molecule with its values, some of them ahead of it. Where no end group is shown, it is not given here.

Key:
[1] = biological target: T1, endogenous KNTC2 (Homo sapiens, UniProt O14777); assay: Immunoprecipitation of FLAG-tagged CDCA1 deletion-constructs in LC319 cells; assay type: binding; settings: LC319 cells transfected with deletion-construct
T1 construct: endogenous in cells; host or cells: LC319
T1 sequence (O14777 1-642): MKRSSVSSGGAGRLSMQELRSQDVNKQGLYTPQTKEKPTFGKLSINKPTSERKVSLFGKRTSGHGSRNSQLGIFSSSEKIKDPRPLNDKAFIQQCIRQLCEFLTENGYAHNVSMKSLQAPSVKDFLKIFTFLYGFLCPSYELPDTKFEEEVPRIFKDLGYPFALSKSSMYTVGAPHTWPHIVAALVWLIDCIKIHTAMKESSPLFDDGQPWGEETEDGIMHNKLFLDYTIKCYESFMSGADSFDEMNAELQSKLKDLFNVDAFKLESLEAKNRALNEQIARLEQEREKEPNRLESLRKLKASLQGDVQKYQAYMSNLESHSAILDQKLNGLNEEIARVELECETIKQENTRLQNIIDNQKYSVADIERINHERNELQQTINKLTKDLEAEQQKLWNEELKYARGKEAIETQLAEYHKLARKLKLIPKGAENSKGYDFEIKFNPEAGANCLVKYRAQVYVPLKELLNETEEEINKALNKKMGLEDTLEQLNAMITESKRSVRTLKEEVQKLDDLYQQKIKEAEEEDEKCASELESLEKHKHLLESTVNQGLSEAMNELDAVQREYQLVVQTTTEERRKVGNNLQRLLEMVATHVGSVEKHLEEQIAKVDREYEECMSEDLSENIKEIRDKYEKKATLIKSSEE
Protocol: (g) Identification of the KNTC2-binding region in CDCA1: Eleven deletion-constructs of CDCA1 (CDCA1 200-464, CDCA1 149-464, CDCA11-348, CDCA11-148, CDCA1 149-306, CDCA1 306-464, CDCA1 319-464, CDCA1 277-416, CDCA1 277-367, CDCA1 319-416, and CDCA1 319-367) were cloned into appropriate sites of C-terminal FLAG-tagged-pCAGGS vector. Cell extracts from lung-cancer cell line LC319, transfected with plasmids expressing eleven deletion-constructs of CDCA1 were pre-cleared by incubation at 4° C. for 1 hour with 100 μl of protein G-agarose beads in final volumes of 2 ml of immunoprecipitation buffer (0.5% NP-40, 50 mM Tris-HCl, 150 mM NaCl) in the presence of proteinase inhibitor. After centrifugation at 1,000 rpm for 5 min at 4° C., the supernatants were incubated at 4° C. with anti-FLAG M2 agarose for 2 hours. After the beads were collected from each sample by centrifugation at 5,000 rpm for 2 min and washed six times with 1 ml of immunoprecipitation buffer, the washed beads were re-suspended in 50 μl of Laemmli sample buffer and boiled for 5 min before the proteins were separated on 10% SDS PAGE gels. Immunoblot was performed using KNTC2 polyclonal antibody (Abcom, Inc.) and anti-FLAG M2 monoclonal antibody respectively (Sigma-Aldrich Co.).

[2] = system: MRC5 cells; assay: MTT assay, 11R-peptides on normal lung fibroblasts; assay type: cell-based; settings: normal human lung fibroblast derived MRC5 cells, hardly detectable CDCA1 and KNTC2
Protocol: (m) Effect of 11R-peptides on lung-cancer cell growth: LC319 and […] and normal human lung fibroblast derived MRC5 cells were incubated with 11R-peptides at the concentration of 5 μM, 10 μM, and 20 μM for seven days. The medium was exchanged every other day at the appropriate concentrations of each peptide and the viability of cells was evaluated by MTT assay at 7 days after the treatment; briefly, cell-counting kit-8 solution (DOJINDO, Kumamoto, Japan) was added to each dish at a concentration of 1/10 volume, and the plates were incubated at 37° C. for additional 4 hours. Absorbance was then measured at 490 nm, and at 630 nm as a reference, with a Microplate Reader 550 (BIO-RAD). Flow-cytometric analysis was performed as described previously (Suzuki, C. et al. Cancer Res. 65, 11314-11325 (2005).).

[3] = Mouse model: body weight and food intake; assay type: in vivo, BALB/c nude mice; settings: intratumoral 0.15 μmol/body/day for 7 weeks, among three treatment groups, data not shown
Protocol: (n) Mouse model: The animal experiments were conducted according to the institutional and national guidelines for the care and use of laboratory animals, and approved by the institutional animal use committee. 1×10^6 of A549 cells were subcutaneously implanted into the right shoulder of 6-week-old male BALB/c nude mice (nu/nu). Two weeks after the injection, the mice with tumor (30 mm^3 volume on average) were randomized into three groups and intratumorly administered with 11R-CDCA1398-416 peptides (0.15 μmol/body/day), scramble (0.15 μmol/body/day), or PBS (control) for 7 weeks. Tumor volume was measured once a day by using a caliper and applying the data to the formula (volume=0.52×[width]^2×[length]) to calculate the volume of a spheroid.

[4] = biological target: T2, CDCA1-KNTC2 complex (Homo sapiens, UniProt O14777); assay: Immunoprecipitation: suppression of CDCA1-KNTC2 complex formation in LC319 cells; assay type: binding; settings: LC319 cells co-transfected with CDCA1 1-464 and the fragment
T2 construct: full length) and endogenous KNTC2; expressed in transfected cells; host or cells: LC319
T2 sequence (O14777 1-642): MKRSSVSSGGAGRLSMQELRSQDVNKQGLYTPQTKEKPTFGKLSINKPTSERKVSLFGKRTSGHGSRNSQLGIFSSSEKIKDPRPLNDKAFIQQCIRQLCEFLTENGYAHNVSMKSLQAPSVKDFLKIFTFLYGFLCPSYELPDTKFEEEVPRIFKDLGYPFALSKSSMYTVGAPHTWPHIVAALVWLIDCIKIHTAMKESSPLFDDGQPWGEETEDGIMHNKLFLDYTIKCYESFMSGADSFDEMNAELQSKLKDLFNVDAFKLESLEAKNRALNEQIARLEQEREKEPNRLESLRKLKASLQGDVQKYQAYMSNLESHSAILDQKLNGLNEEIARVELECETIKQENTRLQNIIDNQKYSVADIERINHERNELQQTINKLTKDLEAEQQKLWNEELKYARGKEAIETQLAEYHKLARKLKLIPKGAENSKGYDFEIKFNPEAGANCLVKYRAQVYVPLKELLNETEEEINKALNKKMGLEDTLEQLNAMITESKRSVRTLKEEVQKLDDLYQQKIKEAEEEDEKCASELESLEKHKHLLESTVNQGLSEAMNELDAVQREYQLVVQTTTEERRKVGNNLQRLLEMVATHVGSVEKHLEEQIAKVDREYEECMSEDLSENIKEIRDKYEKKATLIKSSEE
Protocol: (f) Identification of CDCA1-associated Proteins: Cell extracts from lung-cancer cell line LC319 were pre-cleared by incubation at 4° C. for 1 hour with 50 μl of protein A and G-agarose beads, in final volumes of 2 ml of immunoprecipitation buffer (0.5% NP-40, 50 mM Tris-HCl, 150 mM NaCl) in the presence of proteinase inhibitor. After centrifugation at 1,000 rpm for 5 min at 4° C., the supernatants were incubated at 4° C. with anti-CDCA1 polyclonal antibody, anti-KNTC2 polyclonal antibody, or normal rabbit IgG for 2 hours. […] The nucleotide sequence of each cDNA clone was determined with an ABI Prism 3700 DNA sequencer (Applied Biosystems, Foster City, Calif.), using T3, T7, or synthetic oligonucleotide primers according to the manufacturer's instructions. […]
Since the band of endogenous CDCA1 immunoprecipitated with anti-CDCA1/KNTC2 antibody overlapped with IgG-heavy chain bands, it was difficult to detect the interaction between endogenous CDCA1 and KNTC2. […] Interaction of only CDCA1 1-464 (full length) or CDCA1 200-464 with endogenous KNTC2 was detected by immunoprecipitation using anti-KNTC2 polyclonal antibody (FIG. 5A; left top panel; black and white arrows). […]

[5] = system: LC319 cells; assay: MTT assay after transfection of dominant-negative CDCA1 fragment; assay type: cell-based, human; settings: LC319 transfected with fragment plasmid; P=0.0026 CDCA1 200-464 vs CDCA1 149-306

interaction with endogenous KNTC2 [1]: unable to interact
Molecule: CDCA1 319-367: C-terminal FLAG-tagged deletion-construct of CDCA1 (NLEDQIESDESELKKLKTEENSFKRLMIVKKEKLATAQFKINKKHEDVK-{FLAG tag})

Molecule: RRRRRRRRRRRGGGIQKIKLGIQQLKDAAEREK [11R-CDCA1 398-416]
cell viability (MTT) [2]: no off-target effect
body weight [3]: no difference
food intake [3]: no difference

B1: CDCA1 200-464: C-terminal FLAG-tagged deletion-construct of CDCA1 lacking the N-terminal portion; dominant-negative fragment (protein)
chain: QKTIVLQEGNSQKKSNISEKTKRLNELKLLVVSLKEIQESLKTKIVDSPEKLKNYKEKMKDTVQKLKNARQEVVEKYEIYGDSVDCLPSCQLEVQLYQKKIQDLSDNREKLASILKESLNLEDQIESDESELKKLKTEENSFKRLMIVKKEKLATAQFKINKKHEDVKQYKRTVIEDCNKVQEKRGAVYERVTTINQEIQKIKLGIQQLKDAAEREKLKSQEIFLNLKTALEKYHDGIEKAAEDSYAKIDEKTAELKRKMFKMST
modifications: left off: small tags and cut ends
notes: C-terminal FLAG-tagged deletion-construct of CDCA1 lacking the N-terminal portion; dominant-negative fragment
complex formation between exogenous CDCA1 (full length) and endogenous KNTC2 [4]: reduced complex formation; also recorded: reduction of the complex formation
interaction with endogenous KNTC2 [1]: strongest affinity; also recorded: Interaction
cell viability (MTT) [5]: significant decreases; also recorded: dominant-negative effect

B2: CDCA11-148: C-terminal FLAG-tagged deletion-construct of CDCA1 (protein)
chain: METLSFPRYNVAEIVIHIRNKILTGADGKNLTKNDLYPNPKPEVLHMIYMRALQIVYGIRLEHFYMMPVNSEVMYPHLMEGFLPFSNLVTHLDSFLPICRVNDFETADILCPKAKRTSRFLSGIINFIHFREACRETYMEFLWQYKSS
modifications: left off: small tags and cut ends
notes: C-terminal FLAG-tagged deletion-construct of CDCA1
interaction with endogenous KNTC2 [1]: unable to interact; also recorded: did not retain any appreciable ability to interact

interaction with endogenous KNTC2 [1]: unable to interact
B3: CDCA1 149-306: C-terminal FLAG-tagged deletion-construct of CDCA1, served as a control (protein)
chain: ADKMQQLNAAHQEALMKLERLDSVPVEEQEEFKQLSDGIQELQQSLNQDFHQKTIVLQEGNSQKKSNISEKTKRLNELKLLVVSLKEIQESLKTKIVDSPEKLKNYKEKMKDTVQKLKNARQEVVEKYEIYGDSVDCLPSCQLEVQLYQKKIQDLSDN
modifications: left off: small tags and cut ends
notes: C-terminal FLAG-tagged deletion-construct of CDCA1, served as a control
interaction with endogenous KNTC2 ([1]; listed as CDCA1149-306): did not retain any appreciable ability to interact

interaction with endogenous KNTC2 [1]: unable to interact
B4: CDCA1 277-367: C-terminal FLAG-tagged deletion-construct of CDCA1 (protein)
chain: EIYGDSVDCLPSCQLEVQLYQKKIQDLSDNREKLASILKESLNLEDQIESDESELKKLKTEENSFKRLMIVKKEKLATAQFKINKKHEDVK
modifications: left off: small tags and cut ends
